Molecular target: T1, HR2P-FITC (HR2P peptide labeled with FITC) (MERS-CoV, UniProt K9N5Q8 1251-1286)
T1 peptide: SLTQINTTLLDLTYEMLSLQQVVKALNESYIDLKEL
Test: native gel or EMSA

## ANKFNQALGAMQTGFTTTNEAFHKVQDAVNNNAQALSKLASE [HR1P peptide (residues 998-1039 of the MERS-CoV S protein, HR1 domain of the S2 subunit)]
  binding result: binds

Source: article PMC7114414 (Virus Research, 2014)
